Results reported in patent publication US20250281608A1.

Biological target: C1q
Test: C1q binding assay, format not stated

## rituximab (antibody)
  EC50: 0.9 µg/mL
